What all share (conditions): both partners purified
For assay [1], the target named is T1, C3b (human, UniProt P01024 23-667; P01024 749-1663).
T1 construct: complement C3 beta chain, human; Immobilised by amine coupling, via the nascent thioester (physiological) or via the free thiol of hydrolysed C3b; the way is told in each assay's format; also called C3b(H2O); C3b-SH; source: bought: Complement Technologies, Inc. (human plasma-derived)
Kind of assay: SPR; C1 chip, 196 RU C3b immobilised physiologically (seed C3b, then seven cycles of FB+FD and C3); FH flowed (2 μM to 7.8 nM); Biacore T200, 25 °C, HBS-P pH 7.4; 1:1 steady-state model. A general note: SPR reads the build-up and loss of mass on a sensor chip optically.

The target of assay [2] is T1, C3b. Kind of assay: SPR; homemade HJEM4 chip with maleimide groups, 240 RU hydrolyzed C3b coupled via its free thiol; FH flowed (2 μM to 3.9 nM); Biacore T200, 25 °C, HBS-P pH 7.4; 1:1 steady-state model.
Assay [3] concerns the target T1, C3b. Description: SPR; homemade HJEM7 chip (50% OH, 25% COOH, 25% propargyl), 144 RU C3b amine-coupled; FH (2 μM to 3.9 nM) or FH 19–20 (10 μM to 3.9 nM) flowed; Biacore T200, 25 °C, HBS-P pH 7.4; 1:1 steady-state model.
Assay [4] deals with T1, C3b. Description: SPR; homemade HJEM2 chip (1% COOH, 99% OH), 313 RU C3b amine-coupled; FH flowed (2 μM to 3.9 nM); Biacore T200, 25 °C, HBS-P pH 7.4; 1:1 steady-state model.
Assay [5] addresses T1, C3b. Description: SPR; homemade HJEM7 chip, 143 RU C3b amine-coupled and 174 RU 3′-sialyllactose clicked on; FH (2 μM to 3.9 nM) or FH 19–20 (10 μM to 3.9 nM) flowed; Biacore T200, 25 °C, HBS-P pH 7.4; 1:1 steady-state model.
The target in assay [6] is T1, C3b. Kind of assay: SPR; C1 chip, 144 RU C3b amine-coupled; FH flowed (2 μM to 7.8 nM, 2-fold series, duplicates); Biacore T200, 25 °C, HBS-P pH 7.4, 150 mM NaCl, 1 mM MgCl2; 1:1 steady-state model.

As usually defined, the Kd is a measure of binding affinity in units of concentration. A high value points to lower affinity.

B1: factor H (natural protein, human, UniProt P08603 19-1231, looked up)
chain: EDCNELPPRRNTEILTGSWSDQTYPEGTQAIYKCRPGYRSLGNVIMVCRKGEWVALNPLRKCQKRPCGHPGDTPFGTFTLTGGNVFEYGVKAVYTCNEGYQLLGEINYRECDTDGWTNDIPICEVVKCLPVTAPENGKIVSSAMEPDREYHFGQAVRFVCNSGYKIEGDEEMHCSDDGFWSKEKPKCVEISCKSPDVINGSPISQKIIYKENERFQYKCNMGYEYSERGDAVCTESGWRPLPSCEEKSCDNPYIPNGDYSPLRIKHRTGDEITYQCRNGFYPATRGNTAKCTSTGWIPAPRCTLKPCDYPDIKHGGLYHENMRRPYFPVAVGKYYSYYCDEHFETPSGSYWDHIHCTQDGWSPAVPCLRKCYFPYLENGYNQNYGRKFVQGKSIDVACHPGYALPKAQTTVTCMENGWSPTPRCIRVKTCSKSSIDIENGFISESQYTYALKEKAKYQCKLGYVTADGETSGSITCGKDGWSAQPTCIKSCDIPVFMNARTKNDFTWFKLNDTLDYECHDGYESNTGSTTGSIVCGYNGWSDLPICYERECELPKIDVHLVPDRKKDQYKVGEVLKFSCKPGFTIVGPNSVQCYHFGLSPDLPICKEQVQSCGPPPELLNGNVKEKTKEEYGHSEVVEYYCNPRFLMKGPNKIQCVDGEWTTLPVCIVEESTCGDIPELEHGWAQLSSPPYYYGDSVEFNCSESFTMIGHRSITCIHGVWTQLPQCVAIDKLKKCKSSNLIILEEHLKNKKEFDHNSNIRYRCRGKEGWIHTVCINGRWDPEVNCSMAQIQLCPPPPQIPNSHNMTTTLNYRDGEKVSVLCQENYLIQEGEEITCKDGRWQSIPLCVEKIPCSQPPQIEHGTINSSRSSQESYAHGTKLSYTCEGGFRISEENETTCYMGKWSSPPQCEGLPCKSPPEISHGVVAHMSDSYQYGEEVTYKCFEGFGIDGPAIAKCLGEKWSHPPSCIKTDCLSLPSFENAIPMGEKKDVYKAGEQVTYTCATYYKMDGASNVTCINSRWTGRPTCRDTSCVNPPTVQNAYIVSRQMSKYPSGERVRYQCRSPYEMFGDEEVMCLNGNWTEPPQCKDSTGKCGPPPPIDNGDITSFPLSVYAPASSVEYQCQNLYQLEGNKRITCRNGQWSEPPKCLHPCVISREIMENYNIALRWTAKQKLYSRTGESVEFVCKRGYRLSSRSHTLRTTCWDGKLEYPTCAKR
notes: complement factor H, human, 155-kDa serum glycoprotein of 20 CCP modules; Free FH: flowed as analyte in SPR, or amine-coupled directly to the AFM tip; also called FH; CFH; source: isolated from human plasma (TCS Biosciences Ltd.)
On to B1, for which the Kd with C3b [1] turned out to be 130 nM; with C3b [2] it was 180 nM; in the assay with C3b [3] it was 70 nM; with C3b [4] it was 50 nM; with C3b [5] it was 90 nM; with C3b [6] it was 230 nM.

The values are drawn from article PMC6937562, “Combining SPR with atomic-force microscopy enables single-molecule insights into activation and suppression of the complement cascade” (The Journal of Biological Chemistry, 2019).
